Data from article PMC9603813, “Genome-Wide Analysis Reveals that PhoP Regulates Pathogenicity in Riemerella anatipestifer”.

B1: KYF39_00915 (transposase) probe (dsDNA)
DNA 1: TGAAAATTTCAAATTTAACTAAAGCTTATAGCAAT
DNA 2: ATTGCTATAAGCTTTAGTTAAATTTGAAATTTTCA
B2: KYF39_06865 motif probe (dsDNA)
DNA 1: CGTTAAAAAATAAAGCGAGGTTTTGTTGTTTTAAA
DNA 2: TTTAAAACAACAAAACCTCGCTTTATTTTTTAACG
B3: dedA motif probe (dsDNA)
DNA 1: ATCTATAAAGAGATTTAACAAATTTTATAATTCTA
DNA 2: TAGAATTATAAAATTTGTTAAATCTCTTTATAGAT
B4: KYF39_07405 (OMPbB) probe (dsDNA)
DNA 1: ATAAAGTGGCAAATTTAACTTTAATAATTAAAAGA
DNA 2: TCTTTTAATTATTAAAGTTAAATTTGCCACTTTAT
B5: KYF39_00905 (transporter) probe (dsDNA)
DNA 1: CAAAAAATATTTCATTAACAGAATAGACAATCATA
DNA 2: TATGATTGTCTATTCTGTTAATGAAATATTTTTTG
B6: phoPR motif probe (dsDNA)
DNA 1: AAACTCATAATAATCTGTTAAAAAACTCGTTTTTA
DNA 2: TAAAAACGAGTTTTTTAACAGATTATTATGAGTTT

Legend:
Details in all cases: protein: recombinant; tags: His6 (pET-28a); chain copies: 2; label: 5' biotin on strand 1; blunt
His6-PhoP [1] = molecular target: T1, His6-PhoP (Riemerella anatipestifer RA-YM, UniProt E4TAE7 2-228); test: EMSA; unphosphorylated
T1 sequence: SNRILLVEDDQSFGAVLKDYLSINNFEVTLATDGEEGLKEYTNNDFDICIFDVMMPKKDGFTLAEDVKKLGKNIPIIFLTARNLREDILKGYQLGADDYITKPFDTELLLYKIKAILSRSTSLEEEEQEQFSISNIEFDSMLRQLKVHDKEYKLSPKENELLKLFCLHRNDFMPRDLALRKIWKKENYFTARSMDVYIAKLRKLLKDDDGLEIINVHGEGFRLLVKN

His6-PhoP [2] = molecular target: T1, His6-PhoP; test: EMSA; phosphorylated by acetyl phosphate
His6-PhoP [3] = molecular target: T1, His6-PhoP; test: EMSA
His6-PhoP-DBD = molecular target: T2, His6-PhoP-DBD (Riemerella anatipestifer RA-YM, UniProt E4TAE7 130-228); test: EMSA
T2 sequence: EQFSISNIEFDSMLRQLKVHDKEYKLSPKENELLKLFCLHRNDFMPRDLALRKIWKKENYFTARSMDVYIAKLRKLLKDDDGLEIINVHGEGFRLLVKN

Binder	Kd (His6-PhoP [1])	Kd (His6-PhoP [2])	binding result (His6-PhoP [3])	binding result (His6-PhoP-DBD)
B1	29.8 nM	33.9 nM		
B2			binds	
B3			binds	
B4			binds	
B5	39.2 nM	39.5 nM		
B6			binds	no binding
